From patent US20150344570A1 (published 2015) come the findings set out here.

Sequences and labels used below:
B1: GpH7-B3 variant S324_02A/GpL16-k0 (antibody, human IgG1, kappa)
heavy: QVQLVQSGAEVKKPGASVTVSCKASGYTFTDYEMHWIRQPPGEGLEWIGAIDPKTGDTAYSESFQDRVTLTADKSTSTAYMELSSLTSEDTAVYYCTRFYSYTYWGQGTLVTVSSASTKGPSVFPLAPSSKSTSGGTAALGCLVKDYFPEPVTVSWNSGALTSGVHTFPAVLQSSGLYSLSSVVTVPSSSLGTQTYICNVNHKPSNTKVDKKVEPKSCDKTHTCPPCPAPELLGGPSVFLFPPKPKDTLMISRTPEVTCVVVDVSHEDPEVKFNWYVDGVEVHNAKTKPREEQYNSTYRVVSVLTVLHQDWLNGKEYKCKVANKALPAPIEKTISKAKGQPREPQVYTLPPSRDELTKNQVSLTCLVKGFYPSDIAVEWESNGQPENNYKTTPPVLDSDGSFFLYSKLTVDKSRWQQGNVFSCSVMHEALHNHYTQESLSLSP
light: DIVMTQSPLSLPVTPGEPASISCQASESLVHSNRNTYLHWYLQKPGQSPQLLIYKVSNRFSGVPDRFSGSGSGTDFTLKISRVEAEDVGVYYCSQNTHVPPTFGQGTKVEIERTVAAPSVFIFPPSDEQLKSGTASVVCLLNNFYPREAKVQWKVDNALQSGNSQESVTEQDSKDSTYSLSSTLTLSKADYEKHKVYACEVTHQGLSSPVTKSFNRGEC
notes: also called Ho Ab S324_02A
B2: GpH7-B3 variant S324_15Y/GpL16-k0 (antibody, human IgG1, kappa)
heavy: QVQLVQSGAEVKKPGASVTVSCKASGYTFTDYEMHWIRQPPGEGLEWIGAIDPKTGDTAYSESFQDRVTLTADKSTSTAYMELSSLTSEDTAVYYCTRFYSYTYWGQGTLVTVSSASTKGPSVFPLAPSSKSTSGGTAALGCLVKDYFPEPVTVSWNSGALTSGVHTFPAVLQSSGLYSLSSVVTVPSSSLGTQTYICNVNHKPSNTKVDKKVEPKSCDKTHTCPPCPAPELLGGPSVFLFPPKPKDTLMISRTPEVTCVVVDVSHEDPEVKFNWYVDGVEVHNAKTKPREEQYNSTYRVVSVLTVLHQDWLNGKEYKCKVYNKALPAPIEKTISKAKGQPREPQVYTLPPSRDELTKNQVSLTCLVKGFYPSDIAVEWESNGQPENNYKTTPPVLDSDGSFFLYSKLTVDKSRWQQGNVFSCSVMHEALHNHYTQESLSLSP
light: DIVMTQSPLSLPVTPGEPASISCQASESLVHSNRNTYLHWYLQKPGQSPQLLIYKVSNRFSGVPDRFSGSGSGTDFTLKISRVEAEDVGVYYCSQNTHVPPTFGQGTKVEIERTVAAPSVFIFPPSDEQLKSGTASVVCLLNNFYPREAKVQWKVDNALQSGNSQESVTEQDSKDSTYSLSSTLTLSKADYEKHKVYACEVTHQGLSSPVTKSFNRGEC
notes: also called Ho Ab S324_15Y
B3: GpH7-B3 variant S337_12R/GpL16-k0 (antibody, human IgG1, kappa)
heavy: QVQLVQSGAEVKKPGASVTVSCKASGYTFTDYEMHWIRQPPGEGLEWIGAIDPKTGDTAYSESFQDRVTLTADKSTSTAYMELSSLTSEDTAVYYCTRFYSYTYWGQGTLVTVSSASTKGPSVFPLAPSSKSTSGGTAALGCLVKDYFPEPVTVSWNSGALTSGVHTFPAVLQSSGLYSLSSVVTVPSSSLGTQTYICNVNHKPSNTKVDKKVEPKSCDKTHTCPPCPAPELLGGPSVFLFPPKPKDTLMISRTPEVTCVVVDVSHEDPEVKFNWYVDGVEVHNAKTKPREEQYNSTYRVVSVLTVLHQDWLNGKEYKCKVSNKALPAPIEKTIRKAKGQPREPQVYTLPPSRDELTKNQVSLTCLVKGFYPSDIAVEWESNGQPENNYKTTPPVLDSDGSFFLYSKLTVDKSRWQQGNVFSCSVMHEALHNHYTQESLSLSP
light: DIVMTQSPLSLPVTPGEPASISCQASESLVHSNRNTYLHWYLQKPGQSPQLLIYKVSNRFSGVPDRFSGSGSGTDFTLKISRVEAEDVGVYYCSQNTHVPPTFGQGTKVEIERTVAAPSVFIFPPSDEQLKSGTASVVCLLNNFYPREAKVQWKVDNALQSGNSQESVTEQDSKDSTYSLSSTLTLSKADYEKHKVYACEVTHQGLSSPVTKSFNRGEC
notes: also called Ho Ab S337_12R
B4: GpH7-B3 variant S324_11K/GpL16-k0 (antibody, human IgG1, kappa)
heavy: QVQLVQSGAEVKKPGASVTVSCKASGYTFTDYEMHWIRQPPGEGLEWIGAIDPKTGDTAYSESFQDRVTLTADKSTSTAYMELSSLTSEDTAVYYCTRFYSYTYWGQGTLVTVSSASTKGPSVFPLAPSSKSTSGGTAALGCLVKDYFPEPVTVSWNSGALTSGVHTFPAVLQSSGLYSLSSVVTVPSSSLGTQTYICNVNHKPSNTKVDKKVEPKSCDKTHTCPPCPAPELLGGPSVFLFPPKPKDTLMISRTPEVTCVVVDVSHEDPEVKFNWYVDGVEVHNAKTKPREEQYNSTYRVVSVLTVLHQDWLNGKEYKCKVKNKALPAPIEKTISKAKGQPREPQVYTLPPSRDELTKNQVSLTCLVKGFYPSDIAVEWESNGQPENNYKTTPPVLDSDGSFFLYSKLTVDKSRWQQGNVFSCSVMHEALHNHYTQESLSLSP
light: DIVMTQSPLSLPVTPGEPASISCQASESLVHSNRNTYLHWYLQKPGQSPQLLIYKVSNRFSGVPDRFSGSGSGTDFTLKISRVEAEDVGVYYCSQNTHVPPTFGQGTKVEIERTVAAPSVFIFPPSDEQLKSGTASVVCLLNNFYPREAKVQWKVDNALQSGNSQESVTEQDSKDSTYSLSSTLTLSKADYEKHKVYACEVTHQGLSSPVTKSFNRGEC
notes: also called Ho Ab S324_11K
B5: GpH7-B3 variant S324_20W/GpL16-k0 (antibody, human IgG1, kappa)
heavy: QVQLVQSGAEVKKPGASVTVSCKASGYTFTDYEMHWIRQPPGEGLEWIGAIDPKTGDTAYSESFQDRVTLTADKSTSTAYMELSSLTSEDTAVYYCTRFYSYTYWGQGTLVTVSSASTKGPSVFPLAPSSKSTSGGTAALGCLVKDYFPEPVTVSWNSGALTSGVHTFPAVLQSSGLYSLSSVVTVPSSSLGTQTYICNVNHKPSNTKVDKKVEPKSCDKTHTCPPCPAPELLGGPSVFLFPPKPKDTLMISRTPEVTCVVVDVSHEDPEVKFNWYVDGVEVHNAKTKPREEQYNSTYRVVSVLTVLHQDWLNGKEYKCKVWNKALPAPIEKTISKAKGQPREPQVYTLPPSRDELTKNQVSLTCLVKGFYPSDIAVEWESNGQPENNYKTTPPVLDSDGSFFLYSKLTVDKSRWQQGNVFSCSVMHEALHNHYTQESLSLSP
light: DIVMTQSPLSLPVTPGEPASISCQASESLVHSNRNTYLHWYLQKPGQSPQLLIYKVSNRFSGVPDRFSGSGSGTDFTLKISRVEAEDVGVYYCSQNTHVPPTFGQGTKVEIERTVAAPSVFIFPPSDEQLKSGTASVVCLLNNFYPREAKVQWKVDNALQSGNSQESVTEQDSKDSTYSLSSTLTLSKADYEKHKVYACEVTHQGLSSPVTKSFNRGEC
notes: also called Ho Ab S324_20W
B6: GpH7-B3 variant S337_06M/GpL16-k0 (antibody, human IgG1, kappa)
heavy: not shown
light: DIVMTQSPLSLPVTPGEPASISCQASESLVHSNRNTYLHWYLQKPGQSPQLLIYKVSNRFSGVPDRFSGSGSGTDFTLKISRVEAEDVGVYYCSQNTHVPPTFGQGTKVEIERTVAAPSVFIFPPSDEQLKSGTASVVCLLNNFYPREAKVQWKVDNALQSGNSQESVTEQDSKDSTYSLSSTLTLSKADYEKHKVYACEVTHQGLSSPVTKSFNRGEC
notes: also called Ho Ab S337_06M
B7: GpH7-B3 variant S324_08L/GpL16-k0 (antibody, human IgG1, kappa)
heavy: not shown
light: DIVMTQSPLSLPVTPGEPASISCQASESLVHSNRNTYLHWYLQKPGQSPQLLIYKVSNRFSGVPDRFSGSGSGTDFTLKISRVEAEDVGVYYCSQNTHVPPTFGQGTKVEIERTVAAPSVFIFPPSDEQLKSGTASVVCLLNNFYPREAKVQWKVDNALQSGNSQESVTEQDSKDSTYSLSSTLTLSKADYEKHKVYACEVTHQGLSSPVTKSFNRGEC
notes: also called Ho Ab S324_08L
B8: GpH7-B3 variant S324_12R/GpL16-k0 (antibody, human IgG1, kappa)
heavy: not shown
light: DIVMTQSPLSLPVTPGEPASISCQASESLVHSNRNTYLHWYLQKPGQSPQLLIYKVSNRFSGVPDRFSGSGSGTDFTLKISRVEAEDVGVYYCSQNTHVPPTFGQGTKVEIERTVAAPSVFIFPPSDEQLKSGTASVVCLLNNFYPREAKVQWKVDNALQSGNSQESVTEQDSKDSTYSLSSTLTLSKADYEKHKVYACEVTHQGLSSPVTKSFNRGEC
notes: also called Ho Ab S324_12R
B9: GpH7-B3 variant S324_03V/GpL16-k0 (antibody, human IgG1, kappa)
heavy: not shown
light: DIVMTQSPLSLPVTPGEPASISCQASESLVHSNRNTYLHWYLQKPGQSPQLLIYKVSNRFSGVPDRFSGSGSGTDFTLKISRVEAEDVGVYYCSQNTHVPPTFGQGTKVEIERTVAAPSVFIFPPSDEQLKSGTASVVCLLNNFYPREAKVQWKVDNALQSGNSQESVTEQDSKDSTYSLSSTLTLSKADYEKHKVYACEVTHQGLSSPVTKSFNRGEC
notes: also called Ho Ab S324_03V
B10: GpH7-B3 variant S337_04F/GpL16-k0 (antibody, human IgG1, kappa)
heavy: not shown
light: DIVMTQSPLSLPVTPGEPASISCQASESLVHSNRNTYLHWYLQKPGQSPQLLIYKVSNRFSGVPDRFSGSGSGTDFTLKISRVEAEDVGVYYCSQNTHVPPTFGQGTKVEIERTVAAPSVFIFPPSDEQLKSGTASVVCLLNNFYPREAKVQWKVDNALQSGNSQESVTEQDSKDSTYSLSSTLTLSKADYEKHKVYACEVTHQGLSSPVTKSFNRGEC
notes: also called Ho Ab S337_04F
B11: GpH7-B3 variant S337_03V/GpL16-k0 (antibody, human IgG1, kappa)
heavy: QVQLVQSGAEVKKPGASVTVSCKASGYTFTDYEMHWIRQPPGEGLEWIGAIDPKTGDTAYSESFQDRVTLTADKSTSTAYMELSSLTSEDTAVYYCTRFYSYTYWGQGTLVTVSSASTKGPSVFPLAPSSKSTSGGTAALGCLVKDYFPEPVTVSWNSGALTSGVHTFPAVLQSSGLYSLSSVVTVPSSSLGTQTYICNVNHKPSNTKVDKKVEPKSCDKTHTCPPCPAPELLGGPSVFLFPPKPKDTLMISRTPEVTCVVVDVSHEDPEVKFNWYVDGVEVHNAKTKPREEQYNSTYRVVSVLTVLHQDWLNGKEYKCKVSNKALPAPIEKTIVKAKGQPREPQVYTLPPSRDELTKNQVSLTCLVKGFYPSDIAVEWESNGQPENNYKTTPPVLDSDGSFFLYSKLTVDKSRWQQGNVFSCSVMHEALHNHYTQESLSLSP
light: DIVMTQSPLSLPVTPGEPASISCQASESLVHSNRNTYLHWYLQKPGQSPQLLIYKVSNRFSGVPDRFSGSGSGTDFTLKISRVEAEDVGVYYCSQNTHVPPTFGQGTKVEIERTVAAPSVFIFPPSDEQLKSGTASVVCLLNNFYPREAKVQWKVDNALQSGNSQESVTEQDSKDSTYSLSSTLTLSKADYEKHKVYACEVTHQGLSSPVTKSFNRGEC
notes: also called Ho Ab S337_03V
B12: GpH7-B3 variant S324_16H/GpL16-k0 (antibody, human IgG1, kappa)
heavy: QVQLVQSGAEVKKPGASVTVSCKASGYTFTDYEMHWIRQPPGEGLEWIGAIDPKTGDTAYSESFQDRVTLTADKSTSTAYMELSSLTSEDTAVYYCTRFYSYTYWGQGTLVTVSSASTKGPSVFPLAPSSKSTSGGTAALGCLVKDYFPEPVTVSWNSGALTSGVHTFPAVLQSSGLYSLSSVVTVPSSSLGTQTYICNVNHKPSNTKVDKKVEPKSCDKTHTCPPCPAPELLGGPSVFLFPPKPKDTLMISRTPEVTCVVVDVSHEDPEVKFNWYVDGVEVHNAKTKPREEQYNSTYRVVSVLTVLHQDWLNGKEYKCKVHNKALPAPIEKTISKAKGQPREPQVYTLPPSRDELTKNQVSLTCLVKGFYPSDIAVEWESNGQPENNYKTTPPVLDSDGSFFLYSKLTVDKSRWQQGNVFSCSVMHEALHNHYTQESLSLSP
light: DIVMTQSPLSLPVTPGEPASISCQASESLVHSNRNTYLHWYLQKPGQSPQLLIYKVSNRFSGVPDRFSGSGSGTDFTLKISRVEAEDVGVYYCSQNTHVPPTFGQGTKVEIERTVAAPSVFIFPPSDEQLKSGTASVVCLLNNFYPREAKVQWKVDNALQSGNSQESVTEQDSKDSTYSLSSTLTLSKADYEKHKVYACEVTHQGLSSPVTKSFNRGEC
notes: also called Ho Ab S324_16H
B13: GpH7-B3 variant S337_10E/GpL16-k0 (antibody, human IgG1, kappa)
heavy: not shown
light: DIVMTQSPLSLPVTPGEPASISCQASESLVHSNRNTYLHWYLQKPGQSPQLLIYKVSNRFSGVPDRFSGSGSGTDFTLKISRVEAEDVGVYYCSQNTHVPPTFGQGTKVEIERTVAAPSVFIFPPSDEQLKSGTASVVCLLNNFYPREAKVQWKVDNALQSGNSQESVTEQDSKDSTYSLSSTLTLSKADYEKHKVYACEVTHQGLSSPVTKSFNRGEC
notes: also called Ho Ab S337_10E
B14: GpH7-B3 variant S337_01G/GpL16-k0 (antibody, human IgG1, kappa)
heavy: not shown
light: DIVMTQSPLSLPVTPGEPASISCQASESLVHSNRNTYLHWYLQKPGQSPQLLIYKVSNRFSGVPDRFSGSGSGTDFTLKISRVEAEDVGVYYCSQNTHVPPTFGQGTKVEIERTVAAPSVFIFPPSDEQLKSGTASVVCLLNNFYPREAKVQWKVDNALQSGNSQESVTEQDSKDSTYSLSSTLTLSKADYEKHKVYACEVTHQGLSSPVTKSFNRGEC
notes: also called Ho Ab S337_01G
B15: GpH7-B3 variant S324_19Q/GpL16-k0 (antibody, human IgG1, kappa)
heavy: not shown
light: DIVMTQSPLSLPVTPGEPASISCQASESLVHSNRNTYLHWYLQKPGQSPQLLIYKVSNRFSGVPDRFSGSGSGTDFTLKISRVEAEDVGVYYCSQNTHVPPTFGQGTKVEIERTVAAPSVFIFPPSDEQLKSGTASVVCLLNNFYPREAKVQWKVDNALQSGNSQESVTEQDSKDSTYSLSSTLTLSKADYEKHKVYACEVTHQGLSSPVTKSFNRGEC
notes: also called Ho Ab S324_19Q
B16: GpH7-B3 variant S337_09D/GpL16-k0 (antibody, human IgG1, kappa)
heavy: not shown
light: DIVMTQSPLSLPVTPGEPASISCQASESLVHSNRNTYLHWYLQKPGQSPQLLIYKVSNRFSGVPDRFSGSGSGTDFTLKISRVEAEDVGVYYCSQNTHVPPTFGQGTKVEIERTVAAPSVFIFPPSDEQLKSGTASVVCLLNNFYPREAKVQWKVDNALQSGNSQESVTEQDSKDSTYSLSSTLTLSKADYEKHKVYACEVTHQGLSSPVTKSFNRGEC
notes: also called Ho Ab S337_09D
B17: GpH7-B3 variant S324_14T/GpL16-k0 (antibody, human IgG1, kappa)
heavy: not shown
light: DIVMTQSPLSLPVTPGEPASISCQASESLVHSNRNTYLHWYLQKPGQSPQLLIYKVSNRFSGVPDRFSGSGSGTDFTLKISRVEAEDVGVYYCSQNTHVPPTFGQGTKVEIERTVAAPSVFIFPPSDEQLKSGTASVVCLLNNFYPREAKVQWKVDNALQSGNSQESVTEQDSKDSTYSLSSTLTLSKADYEKHKVYACEVTHQGLSSPVTKSFNRGEC
notes: also called Ho Ab S324_14T
B18: GpH7-B3 variant S324_18N/GpL16-k0 (antibody, human IgG1, kappa)
heavy: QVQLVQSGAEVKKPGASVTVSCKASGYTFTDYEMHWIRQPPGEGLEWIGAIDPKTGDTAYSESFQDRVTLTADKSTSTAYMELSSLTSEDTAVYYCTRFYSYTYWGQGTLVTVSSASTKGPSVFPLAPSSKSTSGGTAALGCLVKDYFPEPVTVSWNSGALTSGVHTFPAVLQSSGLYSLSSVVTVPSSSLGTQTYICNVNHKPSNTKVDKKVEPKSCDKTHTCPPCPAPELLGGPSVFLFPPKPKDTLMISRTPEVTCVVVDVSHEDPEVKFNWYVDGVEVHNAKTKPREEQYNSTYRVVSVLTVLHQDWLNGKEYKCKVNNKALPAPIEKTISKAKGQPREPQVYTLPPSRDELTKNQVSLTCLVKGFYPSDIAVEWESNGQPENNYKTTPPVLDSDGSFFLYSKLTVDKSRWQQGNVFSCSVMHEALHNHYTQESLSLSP
light: DIVMTQSPLSLPVTPGEPASISCQASESLVHSNRNTYLHWYLQKPGQSPQLLIYKVSNRFSGVPDRFSGSGSGTDFTLKISRVEAEDVGVYYCSQNTHVPPTFGQGTKVEIERTVAAPSVFIFPPSDEQLKSGTASVVCLLNNFYPREAKVQWKVDNALQSGNSQESVTEQDSKDSTYSLSSTLTLSKADYEKHKVYACEVTHQGLSSPVTKSFNRGEC
notes: also called Ho Ab S324_18N
B19: GpH7-B3 variant S337_08L/GpL16-k0 (antibody, human IgG1, kappa)
heavy: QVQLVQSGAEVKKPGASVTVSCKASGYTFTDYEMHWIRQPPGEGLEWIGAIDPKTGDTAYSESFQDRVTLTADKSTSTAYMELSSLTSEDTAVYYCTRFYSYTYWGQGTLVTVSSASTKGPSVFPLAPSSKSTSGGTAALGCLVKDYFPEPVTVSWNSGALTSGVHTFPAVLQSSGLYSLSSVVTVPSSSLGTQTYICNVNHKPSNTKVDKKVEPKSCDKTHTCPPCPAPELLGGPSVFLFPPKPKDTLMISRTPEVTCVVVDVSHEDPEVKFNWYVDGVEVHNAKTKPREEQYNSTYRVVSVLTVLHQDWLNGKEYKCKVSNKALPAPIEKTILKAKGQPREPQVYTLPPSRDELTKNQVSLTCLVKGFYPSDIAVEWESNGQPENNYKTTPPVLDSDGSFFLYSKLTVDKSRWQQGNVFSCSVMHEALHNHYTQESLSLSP
light: DIVMTQSPLSLPVTPGEPASISCQASESLVHSNRNTYLHWYLQKPGQSPQLLIYKVSNRFSGVPDRFSGSGSGTDFTLKISRVEAEDVGVYYCSQNTHVPPTFGQGTKVEIERTVAAPSVFIFPPSDEQLKSGTASVVCLLNNFYPREAKVQWKVDNALQSGNSQESVTEQDSKDSTYSLSSTLTLSKADYEKHKVYACEVTHQGLSSPVTKSFNRGEC
notes: also called Ho Ab S337_08L
B20: GpH7-B3 variant S337_07I/GpL16-k0 (antibody, human IgG1, kappa)
heavy: not shown
light: DIVMTQSPLSLPVTPGEPASISCQASESLVHSNRNTYLHWYLQKPGQSPQLLIYKVSNRFSGVPDRFSGSGSGTDFTLKISRVEAEDVGVYYCSQNTHVPPTFGQGTKVEIERTVAAPSVFIFPPSDEQLKSGTASVVCLLNNFYPREAKVQWKVDNALQSGNSQESVTEQDSKDSTYSLSSTLTLSKADYEKHKVYACEVTHQGLSSPVTKSFNRGEC
notes: also called Ho Ab S337_07I
B21: GpH7-B3 variant S337_02A/GpL16-k0 (antibody, human IgG1, kappa)
heavy: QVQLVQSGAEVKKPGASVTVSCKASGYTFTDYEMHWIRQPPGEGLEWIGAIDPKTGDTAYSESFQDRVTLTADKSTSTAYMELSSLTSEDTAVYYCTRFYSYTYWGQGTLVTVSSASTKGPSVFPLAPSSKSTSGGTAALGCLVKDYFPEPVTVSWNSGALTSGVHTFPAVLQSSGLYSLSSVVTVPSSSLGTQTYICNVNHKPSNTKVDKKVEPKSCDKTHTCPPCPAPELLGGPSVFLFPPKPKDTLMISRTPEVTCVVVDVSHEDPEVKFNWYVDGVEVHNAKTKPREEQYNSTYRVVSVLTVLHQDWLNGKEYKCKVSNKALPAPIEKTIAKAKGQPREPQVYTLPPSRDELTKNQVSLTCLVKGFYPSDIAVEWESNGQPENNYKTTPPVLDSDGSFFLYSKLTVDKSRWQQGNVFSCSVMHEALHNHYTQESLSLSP
light: DIVMTQSPLSLPVTPGEPASISCQASESLVHSNRNTYLHWYLQKPGQSPQLLIYKVSNRFSGVPDRFSGSGSGTDFTLKISRVEAEDVGVYYCSQNTHVPPTFGQGTKVEIERTVAAPSVFIFPPSDEQLKSGTASVVCLLNNFYPREAKVQWKVDNALQSGNSQESVTEQDSKDSTYSLSSTLTLSKADYEKHKVYACEVTHQGLSSPVTKSFNRGEC
notes: also called Ho Ab S337_02A

T1 sequence (P12314 16-292): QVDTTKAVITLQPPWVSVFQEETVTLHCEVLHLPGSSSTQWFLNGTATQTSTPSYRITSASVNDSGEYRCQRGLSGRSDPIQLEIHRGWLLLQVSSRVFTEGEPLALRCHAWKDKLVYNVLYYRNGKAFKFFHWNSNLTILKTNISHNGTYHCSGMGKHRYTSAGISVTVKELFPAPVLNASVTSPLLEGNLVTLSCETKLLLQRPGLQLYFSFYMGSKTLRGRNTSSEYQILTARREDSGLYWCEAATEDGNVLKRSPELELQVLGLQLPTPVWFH

This assay addresses T1, FcγRIa (human, UniProt P12314 16-292).
T1 construct: extracellular domain; Soluble extracellular domain expressed in FreeStyle293 cells, used as analyte in Biacore; also called FcgRI; 1a; not shown: His tag attached to the C terminus
As to the kind of experiment: SPR (Biacore); Ho Ab vs HoCon Ab GpH7-B3/GpL16-k0. The essentials:
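Binding of FcγR analyte to peptide-captured antibody is read by surface plasmon resonance at 25° C in HBS-EP+ buffer. Capture surfaces carry antigen peptide, either amine-coupled or biotin/streptavidin-bound.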
For orientation: Surface plasmon resonance follows binding to a sensor surface in real time, without labels.
Consider B1, for which the Ho/Con_1a is 103 relative binding, control = 100. The same measure for B2: 112 relative binding, control = 100.

As to B3, the Ho/Con_1a was 105 relative binding, control = 100.

Turning to B4, the Ho/Con_1a is 100 relative binding, control = 100.

For the molecule B5, the Ho/Con_1a was 112 relative binding, control = 100.

As for B6, the Ho/Con_1a was 102 relative binding, control = 100. On to B7, for which the Ho/Con_1a was 103 relative binding, control = 100. Then B8, with 101 relative binding, control = 100. The same measure for B9: 103 relative binding, control = 100. In the case of B10, the Ho/Con_1a was 105 relative binding, control = 100. The same measure for B11: 105 relative binding, control = 100; for B12: 111 relative binding, control = 100; for B13: 104 relative binding, control = 100. Then B14, with 102 relative binding, control = 100; and B15, with 111 relative binding, control = 100; and B16, with 106 relative binding, control = 100. Then B17, with 112 relative binding, control = 100. Consider B18, for which the Ho/Con_1a is 111 relative binding, control = 100. Then B19, with 105 relative binding, control = 100; and B20, with 105 relative binding, control = 100.

As for B21, the Ho/Con_1a was 103 relative binding, control = 100.
